Columns and labels:
[1] = standard enzyme test for racemase (AAR) activity, HPLC detection; type: biochemical, Amycolatopsis orientalis subspecies lurida; conditions: N-unprotected amino acids as substrate
[2] = as above; type: biochemical, Amycolatopsis orientalis subspecies lurida
Source text: The AAR activity was followed up in a coupled enzymatic assay (Diagram 1), in that the formation of a deacetylated amino acid from an N-acetyl-D-amino acid, methionine here, was detected using the HPLC system I. The L-specific […] from pig kidneys or Aspergillus oryzae served as the auxiliary enzymes. [drawing 1]
Further characterization of the AAR took place using the HPLC system II. Using this system, it was possible to study the activity of the AAR directly. In this way, it was possible to do without the auxiliary enzyme, the acylase, so that it was possible to avoid disruptive interference activity.
Crude extracts of the superexpression clone, […]. purified enzyme fractions, were used in an enzyme test, in that it was possible to detect the formation of L-methionine from N-acetyl-D-methionine (see Diagram 1), via HPLC:
The standard enzyme test (modified according to Tokuyama et al., Appl. Microbiol. Biotechnol. (1994), 40, 835-840; ibid., Appl. Microbiol. Biotechnol. (1995a), 42, 853-859), was composed as follows:
Solvent: Tris/HCl, pH 7.5, 50 mM
N-acetyl-D-methionine 25 mM
Acylase I (ASch or AAsp) 1 U
Protein 2-150 μg purified protein or total protein
In this connection, acylase I and Co^2+ are present in excess, so that the AAR reaction is the step that determines the speed. Incubation took place for 10-40 min at 30° C. The reaction was then stopped by boiling for 3 min. Analysis of the reaction products took place using HPLC (System I).
Unless mentioned otherwise, acylase I from pig kidneys (ASch) was used in the enzyme test, and Co^2+, was used as the ion (CoCl2×6H2O). Alternatively, however, acylase I from Aspergillus oryzae (AAsp) was also used.
In assays that were analyzed using the HPLC system II, the acylase could be left out, since it is possible to separate and analyze N-acetyl amino acids directly, enantioselectively, with this system.
Other than Co^2+ (CoCl2×6H2O), other bivalent ions, such as MnCl2×4H2O, […], and MgCl2×6H2O were used in various concentrations (0.1-10 mM).
Substrate inhibition was tested in that the activity of the AAR was mixed with 25 to 400 mM N-acetyl-D-methionine as the substrate.

B1: AAR from A. orientalis subspecies lurida: N-acetyl amino acid racemase (SEQ ID NO: 2) from Amycolatopsis orientalis subspecies lurida, natural or recombinant enzyme (protein)
chain: VKLSGVELRRVRMPLVAPFRTSFGTQSERELLLVRAVTPAGEGWGECVAMEAPLYSSEYNDAAEHVLRNHLIPALLAAEDVTAHKVTPLLAKFKGHRMAKGALEMAVLDAELRAHDRSFAAELGSTRDSVACGVSVGIMDSIPHLLDVVGGYLDEGYVRIKLKIEPGWDVEPVRQVRERFGDDVLLQVDANTAYTLGDAPLLSRLDPFDLLLIEQPLEEEDVLGHAELAKRIRTPICLDESIVSAKAAADAIKLGACQIVNIKPGRVGGYLEARRVHDVCAAHGIAVWCGGMIETGLGRAANVALASLPGFTLPGDTSASGRFYRTDITEPFVLDAGHLPVPTGPGLGVTPIPDLLDEVTTEKAWIGS
Q: With B1 as the molecule, how does the “conversion of amino acids not protected with N-acetyl” value [1] read?
A: Its value is “does not convert”.

Q: And the “conversion of amino acids not protected with N-acetyl” value ([1]; listed as AAR)?
A: The value was “not converted”.

Q: And the “optimum pH” value [2]?
A: Its value is 8.

Q: What about the “increase in the activity as compared with the activity without metal ion” value ([2]; 1 mM CoCl2×6H2O in the assay) of the same molecule?
A: Its value is 1250%.

Q: What about the “specific AAR activity after purification” value ([2]; 2 mM CoCl2×6H2O in the assay) of the same molecule?
A: The value was 30.6 U/mg.

Q: And the “specific activity higher than the one found for racemase by Tokuyama and Hatano” value ([2]; 2 mM CoCl2×6H2O in the assay)?
A: Its value is “approximately 30.8%”.

Q: What about the activity ([2]; 10 mM CoCl2×6H2O in the assay) of the same molecule?
A: Its activity is 37.5 U/mg.

Q: And the “activity with Mg in comparison with cobalt substitution” value ([2]; MgCl2×6H2O at 10 mM, standard enzyme assay)?
A: The value was “about 40%”.

Q: What about the “activity with Mn in comparison with cobalt substitution” value ([2]; MnCl2×4H2O at 10 mM, standard enzyme assay) of the same molecule?
A: Its value is “about 40%”.

Q: And the “substrate concentration at which substrate inhibition occurs” value ([2]; N-acetyl-D-methionine as substrate, 25 to 400 mM tested)?
A: Its value is “greater than 200 mM”.

Q: And the “AAR activity in crude extracts of the expression clone” value ([2]; crude extracts of E. coli BL21 (DE3) with pAAR3-21I)?
A: Its value is 0.6-1.2 U/mg total protein.

Q: And the “more active than the racemase from A. sp. TS-1-60” value ([2]; same CoCl2×6H2O concentration in the assay)?
A: Its value is 152%.
